According to patent US7671181B2, “Polynucleotides encoding coccidian parasite casein kinase I, a chemotherapeutic target for antiprotozoal agents” (Merck Sharp & Dohme Corp., priority 2004, dated 2010):
Like-named read-outs stand apart in the source and are kept apart here.

Experiments:
[1] = tested on: T. gondii; assay: Parasite growth inhibition, modified [3H]-uracil uptake assay in infected HFF cell monolayers; type: cell-based, Toxoplasma gondii; details: for activity against T. gondii in the uracil uptake (whole cell) assay: cultured parasites, in words
Text: (§1) Host cells and parasite cultures—RH strain or RH ΔHXGPRT strain tachyzoites of T. gondii were maintained by serial passage in confluent monolayers of human foreskin fibroblasts (“HFF”) as described (Roos, D. S. et al., 1994, Methods Cell Biol. 45:27-63). A modified [^3H]-uracil uptake assay (Pfefferkorn, E. R. and Pfefferkorn, L. C., 1977, J. Protozool. 24:449-453) adapted for use in 96-well scintillation plates (Cytostar-T, Amersham; Piscataway, N.J.) was used to measure parasite growth inhibition. Each well, previously seeded with HFF cells, was inoculated with T. gondii tachyzoites (2×10^4) in 200 μl of growth media containing 2 μCi [5,6]-^3H-uracil (Perkin-Elmer NEN; Boston, Mass.) and serially diluted compound. Following incubation at 37° C. for 36-48 hours, tritium-incorporation into host cell monolayers was directly counted in a microplate scintillation counter (MicroBeta, PerkinElmer-Wallac).
The only other CDK inhibitor with sub-μM activity against T. gondii was indirubin-3′-monoxime, which gave an IC50 value of 500 nM.

[2] = tested on: T. gondii tachyzoites; assay: [3H]-uracil uptake assay of parasite growth inhibition in infected HFF cell monolayers; type: cell-based, Toxoplasma gondii; details: for activity against cultured T. gondii parasites: uracil uptake / whole cell assay
Text: as §1

[3] = target: TgCKIβ (Toxoplasma gondii, UniProt Q6QNM0); assay: Casein kinase assay, recombinant FLAGTgCKIβ; type: biochemical; details: substrate titration, 2 μM ATP; for Km: read-out: Km(app), FLAGTgCKIβ
Protocol: (§2) Protein kinase assays—Casein kinase activity was assayed essentially as described (Donald, R. G. K. et al., 2002, supra) using 96-well phosphocellulose plates (MAPH-NOB, Millipore; Billerica, Mass.) to capture ^33P-phosphorylated peptide or casein substrates. Kinase reactions were carried out in 40 μl volumes containing 25 mM Hepes, pH 7.4, 10 mM MgCl2, 20 mM β-glycerophosphate, 1 mM DTT, 250 μM substrate, 1 mg/mL BSA, 2 μM ATP, and 0.01 μM [γ-^33P]ATP (Perkin-Elmer, 3000 Ci/mmol). […] Casein (5% solution), partially dephosphorylated α-casein and β-casein were obtained from Sigma.
(§3) A variety of commercially available peptide substrates were evaluated. From Calbiochem (San Diego, Calif.): CKI substrate (RRKDLHDDEEDEAMSITA; SEQ ID NO:13); CKII substrate (RRADDSDDDDD; SEQ ID NO:14); Syntide-2 substrate (PLARTLSVAGLPGKK; SEQ ID NO:15); CaM kinase II substrate (281-291) (MHKNETVECLK; SEQ ID NO:16). From Promega: CKI substrate (DDDEESITRR; SEQ ID NO:17) and kemptide (LRRASLG; SEQ ID NO:18). From New England Biolabs (Beverly, Mass.): CKI phosphopeptide substrate (KRRRALS(p)VASLPGL; SEQ ID NO:19), and CKII substrate (RRREEETEEE; SEQ ID NO:20). PKG assays were performed with kemptide as substrate and 10 μM cGMP. CDPK was assayed with Syntide-2 substrate and in the presence of 100 μM CaCl2.
(§4) Purification of recombinant CKI enzymes—E. coli strain BL21 Origami™ (Novagen) was transformed with FLAGTgCKIα and FLAGTgCKIβ expression vectors, and colonies were expanded into 250 mL LB cultures grown at 37° C. Expression was induced with 1 mM IPTG once cultures had reached an OD600nm of 0.3-0.5, and the transformed bacteria were harvested 4-6 hours later. Cell pellets were resuspended in 15 mL of lysis buffer containing protease inhibitors and lysates prepared as described by the supplier (Bugbuster™ reagents, Novagen). The concentration of NaCl in the lysate was adjusted to 0.5 M, and 0.5 mL of FLAG-agarose beads were added (Sigma). The mixture was allowed to rock in a Nutator mixer (Becton-Dickinson; San Jose, Calif.) for 2 hours at 4° C. The slurry was then poured into an empty column and the matrix washed with 50 mL of wash buffer (50 mM Tris-HCl, pH 7.4, 0.5M NaCl, 10% glycerol, 1 mM DTT, 1 mM EDTA). Enzyme was eluted with 5 mL of 0.4 mg/mL FLAG peptide (Sigma) in NaCl-free wash buffer and concentrated with a centrifuge filtration unit (Amicon Ultra®, 10 kDa cut-off, Millipore). Protein was measured with a micro-BCA reagent (Pierce) following a TCA-sodium deoxycholate step to remove residual FLAG peptide (Brown et al., 1989, Anal. Biochem. 180:136-139). Using this procedure, and SDS-PAGE analysis, the yield of FLAGTgCKIβ was estimated as ˜200 μg of enzyme with >90% purity. Purification of FLAGTgCKIα was much less efficient with only about 1 μg of ˜10% pure enzyme obtained per 250 mL bacterial culture.
Preparations of FLAGTgCKIα and FLAGTgCKIβ were purified further on a SMART system FPLC 0.1 mL MonoQ anion exchange column (Pharmacia; New York, N.Y.) equilibrated in buffer A (50 mM Hepes, pH 7.4, 10% glycerol, 1 mM DTT) at room temperature. Samples of FLAG-affinity purified enzyme (10-100 μg) were syringe-passed through a 0.22 μm (pore-size) filter before loading on the column. A linear salt gradient was applied (0-500 mM in 3 mL at 100 μl/min) and 100 μl fractions were collected and analyzed by SDS-PAGE and for CKI activity. Fractions with peak activity were retained for further analysis. The degree of purity of the partially purified FLAGTgCKIα was estimated by densitometry of silver stained SDS-PAGE gels. A recombinant rat CKIδ enzyme used for control purposes was obtained from New England Biolabs.

[4] = target: T1, TgCKIα (Toxoplasma gondii, UniProt Q6QNM1); assay: Casein kinase assay, TgCKIα (recombinant FLAGTgCKIα or partially purified native); type: biochemical; design: Vmax(app), FLAGTgCKIα; other: substrate titration, 2 μM ATP; Km(app), FLAGTgCKIα; details: substrate titration, 2 μM ATP; for Km: read-out: Km(app), FLAGTgCKIα
Protocol: as §2, §3
as §4, with “Enzyme was eluted with 5 mL of 0.4 mg/mL FLAG peptide (Sigma) in NaCl-free wash buffer and concentrated with a centrifuge filtration unit (Amicon Ultra®, 10 kDa cut-off, Millipore).” left out, “Using this procedure, and SDS-PAGE analysis, the yield of FLAGTgCKIβ was estimated as ˜200 μg of enzyme with >90% purity. Purification of FLAGTgCKIα was much less efficient with only about 1 μg of ˜10% pure enzyme obtained per 250 mL bacterial culture.” left out
(§5) Preparations of FLAGTgCKIα and FLAGTgCKIβ were purified further on a SMART system FPLC 0.1 mL MonoQ anion exchange column (Pharmacia; New York, N.Y.) equilibrated in buffer A (50 mM Hepes, pH 7.4, 10% glycerol, 1 mM DTT) at room temperature. […] A linear salt gradient was applied (0-500 mM in 3 mL at 100 μl/min) and 100 μl fractions were collected and analyzed by SDS-PAGE and for CKI activity. […]

[5] = target: T1, TgCKIα; assay: as above; type: biochemical; design: Km(app), native TgCKIα; other: substrate titration, 2 μM ATP; IC50, nativeTgCKIα; other: partially purified native enzyme from Toxoplasma tachyzoites; sensitivity of native TgCKIα phosphopeptide kinase activity (HiTrapQ fractions 5-9); other: 0.2 μM hymenialdisine or 1; details: substrate titration, 2 μM ATP; read-out: Km(app), native TgCKIα
Protocol: as §2, §3
as §4, with “Enzyme was eluted with 5 mL of 0.4 mg/mL FLAG peptide (Sigma) in NaCl-free wash buffer and concentrated with a centrifuge filtration unit (Amicon Ultra®, 10 kDa cut-off, Millipore).” left out, “Using this procedure, and SDS-PAGE analysis, the yield of FLAGTgCKIβ was estimated as ˜200 μg of enzyme with >90% purity. Purification of FLAGTgCKIα was much less efficient with only about 1 μg of ˜10% pure enzyme obtained per 250 mL bacterial culture.” left out
as §5

Sequence of TgCKIβ (Q6QNM0 entry or part of it): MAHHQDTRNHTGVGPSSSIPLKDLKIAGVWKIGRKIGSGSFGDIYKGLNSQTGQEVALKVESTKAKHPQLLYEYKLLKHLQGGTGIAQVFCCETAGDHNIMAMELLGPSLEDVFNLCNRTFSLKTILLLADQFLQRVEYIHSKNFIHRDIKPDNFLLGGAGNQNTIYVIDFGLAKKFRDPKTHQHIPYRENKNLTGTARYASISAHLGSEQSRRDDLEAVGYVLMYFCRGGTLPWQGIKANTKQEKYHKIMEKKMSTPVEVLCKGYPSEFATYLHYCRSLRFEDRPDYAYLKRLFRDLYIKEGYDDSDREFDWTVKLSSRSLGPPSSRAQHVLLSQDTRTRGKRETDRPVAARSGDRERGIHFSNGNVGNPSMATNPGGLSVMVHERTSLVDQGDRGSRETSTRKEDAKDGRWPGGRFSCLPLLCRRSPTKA
T1 sequence (Q6QNM1 whole entry, looked up): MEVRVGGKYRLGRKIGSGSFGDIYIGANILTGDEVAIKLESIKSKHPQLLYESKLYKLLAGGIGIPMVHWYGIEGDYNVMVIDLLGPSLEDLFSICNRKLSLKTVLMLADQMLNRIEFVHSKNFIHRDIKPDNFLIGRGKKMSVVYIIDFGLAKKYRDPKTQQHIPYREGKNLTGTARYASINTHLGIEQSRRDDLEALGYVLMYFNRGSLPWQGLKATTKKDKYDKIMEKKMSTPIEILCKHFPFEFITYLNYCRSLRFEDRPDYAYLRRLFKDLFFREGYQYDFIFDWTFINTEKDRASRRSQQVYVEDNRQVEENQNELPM

CN1CCC(c2cc(-c3ccncc3)c(-c3ccc(F)cc3)[nH]2)CC1 [Compound 1]
IC50 ([1]; Toxoplasma gondii, HFF): 200 nM | IC50 ([2]; infected HFF cell monolayers, 36-48 hours, read-out: IC50 against T. gondii in the uracil uptake assay): 200 nM

Cn1cnc2c(NCc3ccccc3)nc(NCCO)nc21 [olomoucine]
activity against cultured T. gondii parasites [2]: no activity

CC(C)[C@H](CO)Nc1nc(Nc2cccc(Cl)c2)c2ncn(C(C)C)c2n1 [purvalanol A]
activity against T. gondii in the uracil uptake (whole cell) assay [1]: only mediocre activity | activity against cultured T. gondii parasites [2]: mediocre activity

CC[C@H](CO)Nc1nc(NCc2ccccc2)c2ncn(C(C)C)c2n1 [roscovitine]
activity against T. gondii in the uracil uptake (whole cell) assay [1]: only mediocre activity | activity against cultured T. gondii parasites [2]: mediocre activity

RRKDLHDDEEDEAMSITA [CKI peptide]
Vmax(app), FLAGTgCKIβ [3]: 8 nmol/min/mg | Km [3]: 15 µM

B1: α-casein: partially dephosphorylated α-casein from Sigma, kinase substrate (protein)
chain: RPKHPIKHQGLPQEVLNENLLRFFVAPFPEVFGKEKVNELSKDIGSESTEDQAMEDIKQMEAESISSSEEIVPNSVEQKHIQKEDVPSERYLGYLEQLLRLKKYKVPQLEIVPNSAEERLHSMKEGIHAQQKEPMIGVNQELAYFYPELFRQFYQLDAYPSGAWYYVPLGTQYTDAPSFSDIPNPIGSENSEKTTMPLW
Vmax(app), FLAGTgCKIα [4]: 8 nmol/min/mg | Km [4]: 4 µM | Km [5]: 3 µM | Vmax(app), FLAGTgCKIβ [3]: 12 nmol/min/mg | Km [3]: 5 µM

B2: β-casein: β-casein from Sigma, kinase substrate (protein)
chain: RELEELNVPGEIVESLSSSEESITRINKKIEKFQSEEQQQTEDELQDKIHPFAQTQSLVYPFPGPIPNSLPQNIPPLTQTPVVVPPFLQPEVMGVSKVKEAMAPKHKEMPFPKYPVEPFTESQSLTLTDVENLHLPLPLLQSWMHQPHQPLPPTVMFPPQSVLSLSQSKVLPVPQKAVPYPQRDMPIQAFLLYQEPVLGPVRGPFPIIV
Vmax(app), FLAGTgCKIα [4]: 8 nmol/min/mg | Km [4]: 30 µM | Km [5]: 13 µM | Vmax(app), FLAGTgCKIβ [3]: 16 nmol/min/mg | Km [3]: 12 µM
